For the test, the target named is A型肉毒毒素 (botulinum toxin type A, sample solution of Example 4) (Clostridium botulinum) (UniProt P0DPI0).

Here are results for 2 molecules from patent CN114671948A.

UniProt P0DPI0, sequence (P0DPI0 868-1296 limits assumed): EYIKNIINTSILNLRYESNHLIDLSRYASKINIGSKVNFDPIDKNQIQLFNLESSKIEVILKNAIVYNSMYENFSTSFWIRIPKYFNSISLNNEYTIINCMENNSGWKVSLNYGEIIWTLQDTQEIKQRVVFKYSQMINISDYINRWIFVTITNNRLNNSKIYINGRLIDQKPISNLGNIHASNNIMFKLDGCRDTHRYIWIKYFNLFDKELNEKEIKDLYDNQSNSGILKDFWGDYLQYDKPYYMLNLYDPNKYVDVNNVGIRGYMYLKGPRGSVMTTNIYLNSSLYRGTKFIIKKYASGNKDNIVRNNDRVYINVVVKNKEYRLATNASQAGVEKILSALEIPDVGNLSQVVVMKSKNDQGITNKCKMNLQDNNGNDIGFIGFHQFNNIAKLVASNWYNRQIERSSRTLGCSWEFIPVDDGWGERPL

B1: BoNT/AHc单克隆抗体细胞株401 (monoclonal antibody of hybridoma cell line 401) (antibody)
VH: LTMDFGLSLVFLVLTLKGVKCEVQLVESGGGLVKPGGSLKLSCAASGFAFSTSDMSWVRQTPEKRLEWVTYITSGAGNTNYPDTVKGRFTISRDNAKNTLYVQMSSLKSEDTAMYYCARQSRWSLALDYWGQGTLVTVSAAKTTPPSVYPLAPVCGG
VL: LTMETDTLLLWVLLLWVPGSTGDIVLTQSPASLAVSLGQRATISYRGSNSVSISAYSYMHWNQQKPGQPPRLLIYLVWNQESGVPARFSGSGSGTDFTLNIHPVEEEDAATYYCQHITELTRSEGGPSWKSNGLMLHQLYPSPTIQ
On to B1, for which the 检测限 (detection limit of the sandwich test) turned out to be 20 ng/mL.

B2: BoNT/AHc单克隆抗体细胞株1103 (monoclonal antibody of hybridoma cell line 1103) (antibody)
VH: LTMNFGLSWVFLLTLLHGFQCEVKLVKSGGGSVQPGGSLRLSCTTSGFTFSDSYMQWVRQPLGKRLEWITAGRHKANEYTTEWSASTRGRFIVSRDTSQSILNLQMNALRTEDPAISYCARDDCPHFILPRSYYFFDIWGAGTTVTVSSAKTTPPSVYPLAPVCGG
VL: DIVLTQSPASLAVSLGQRATISYRPSKSVSTSRYSYMHWNQQKPGQPPRLLIYLESNLASGVPARFSGSGSGTDFTLNIHPVEEEDAATYYCQLITELTRSEGGPSWKYNGLMLHQLYP
The molecule B2 showed a 检测限 (detection limit of the sandwich test) of 20 ng/mL.
